Results on two molecules are retold here after publication PMC4150762, “The DEAD-box helicase Ded1 from yeast is an mRNP cap-associated protein that shuttles between the cytoplasm and nucleus” (Nucleic Acids Research, 2014).

The target of test [1] is T1, Ded1-His6 (S. cerevisiae, UniProt P06634 1-604).
T1 construct: Ded1 of S. cerevisiae, recombinant, expressed from pET22b; Printed name Ded1-His6; source: E. coli (pET22b), purified on nickel-agarose
The test is described as follows: pull-down; Ded1 bound to protein A Sepharose beads crosslinked to IgG against Ded1, incubated with single purified proteins, washed, eluted; Coomassie-stained SDS PAGE, western blot for Pab1 and Cbp80; same results with or without RNase I or AMP-PNP. The conditions noted are these: both partners purified. In general terms: A western blot detects proteins with antibodies after separation by electrophoresis.

Test [2] concerns the target T1, Ded1-His6. The test is described as follows: cell-based or functional assay.
Another test addresses T2, GST-NAB2-HIS6 (S. cerevisiae, UniProt P32505 1-525).
T2 construct: source: E. coli, purified on nickel-agarose
T2 sequence (looked up): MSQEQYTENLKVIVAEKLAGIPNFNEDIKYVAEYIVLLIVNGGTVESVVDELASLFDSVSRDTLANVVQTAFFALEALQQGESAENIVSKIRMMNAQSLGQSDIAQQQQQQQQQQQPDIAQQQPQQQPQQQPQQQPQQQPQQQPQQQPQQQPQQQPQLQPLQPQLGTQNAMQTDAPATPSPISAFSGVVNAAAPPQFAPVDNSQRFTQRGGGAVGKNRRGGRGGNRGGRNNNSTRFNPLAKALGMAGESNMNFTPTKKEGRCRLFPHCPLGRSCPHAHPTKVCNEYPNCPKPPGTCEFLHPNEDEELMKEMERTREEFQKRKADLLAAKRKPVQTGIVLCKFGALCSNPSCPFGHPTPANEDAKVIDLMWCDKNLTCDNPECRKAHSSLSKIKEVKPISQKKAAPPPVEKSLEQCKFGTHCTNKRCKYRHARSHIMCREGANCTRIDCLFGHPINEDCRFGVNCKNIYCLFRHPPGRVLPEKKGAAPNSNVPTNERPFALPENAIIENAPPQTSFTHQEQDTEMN
The test is described as follows: pull-down; 7-methyl-GTP Sepharose beads loaded with 5 μg purified eIF4E or Cbp20, 5 μg of the purified proteins added with 50 U RNase I, 90 min on ice, TpB buffer (20 mM HEPES pH 7.9, 100 mM KCl, 2 mM MgCl2, 2 mM DTT), eluted with 1 mM 7-methyl-GTP; Coomassie-stained SDS PAGE. The conditions noted are these: both partners purified.

T1 sequence (P06634 whole entry): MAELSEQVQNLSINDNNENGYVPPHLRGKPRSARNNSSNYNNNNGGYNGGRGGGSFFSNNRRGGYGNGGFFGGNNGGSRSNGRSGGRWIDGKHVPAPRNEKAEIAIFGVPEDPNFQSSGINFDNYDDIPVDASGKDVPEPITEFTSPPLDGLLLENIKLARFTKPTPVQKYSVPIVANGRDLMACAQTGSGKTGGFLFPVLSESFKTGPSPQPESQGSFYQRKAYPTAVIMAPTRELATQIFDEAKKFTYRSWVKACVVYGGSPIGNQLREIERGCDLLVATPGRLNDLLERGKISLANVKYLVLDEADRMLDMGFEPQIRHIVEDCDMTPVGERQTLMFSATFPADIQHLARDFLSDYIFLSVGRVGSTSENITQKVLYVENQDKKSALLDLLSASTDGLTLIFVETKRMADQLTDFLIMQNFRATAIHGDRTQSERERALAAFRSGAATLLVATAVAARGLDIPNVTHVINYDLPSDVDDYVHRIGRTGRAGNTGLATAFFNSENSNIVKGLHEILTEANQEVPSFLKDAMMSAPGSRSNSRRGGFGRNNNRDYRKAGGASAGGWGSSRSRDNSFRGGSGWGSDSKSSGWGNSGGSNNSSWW

B1: eIF4G-His6 fragment 387–952 (domain or fragment, S. cerevisiae, UniProt P39935 387-952, looked up)
chain: AGTKIGLEAEIETTTDETDDGTNTVSHILNVLKDATPIEDVFSFNYPEGIEGPDIKYKKEHVKYTYGPTFLLQFKDKLNVKADAEWVQSTASKIVIPPGMGRGNRSRDSGRFGNNSSRGHDFRNTSVRNMDDRANSRTSSKRRSKRMNDDRRSNRSYTSRRDRERGSYRNEEKREDDKPKEEVAPLVPSANRWVPKFKSKKTEKKLAPDGKTELLDKDEVERKMKSLLNKLTLEMFDAISSEILAIANISVWETNGETLKAVIEQIFLKACDEPHWSSMYAQLCGKVVKELNPDITDETNEGKTGPKLVLHYLVARCHAEFDKGWTDKLPTNEDGTPLEPEMMSEEYYAAASAKRRGLGLVRFIGFLYRLNLLTGKMMFECFRRLMKDLTDSPSEETLESVVELLNTVGEQFETDSFRTGQATLEGSQLLDSLFGILDNIIQTAKISSRIKFKLIDIKELRHDKNWNSDKKDNGPKTIQQIHEEEERQRQLKNNSRSNSRRTNNSSNRHSFRRDAPPASKDSFITTRTYSQRNSQRAPPPKEEPAAPTSTATNMFSALMGESDDEE
notes: Not among the constructs of the methods
Consider B1, for which the binding result with Ded1-His6 [1] is reported as “binds”.

B2: His6-Cbp20 (natural protein, S. cerevisiae, UniProt Q08920 1-208, looked up)
chain: MSLEEFDEVKYDHSTKRLDTPSRYLLRKARRNPNGLQELRESMKSSTIYVGNLSFYTSEEQIYELFSKCGTIKRIIMGLDRFKFTPCGFCFIIYSCPDEALNALKYLSDTKLDEKTITIDLDPGFEDGRQFGRGKSGGQVSDELRFDFDASRGGFAIPFAERVGVPHSRFDNSSSQSNTNNYIPPPDAMGTFRPGFDEEREDDNYVPQ
notes: Cbp20 of S. cerevisiae subcloned from pRSETC20 into the NdeI-BamHI sites of pET19b; Printed name His6-Cbp20; also called Cpb20; source: E. coli (pET19b), purified on nickel-agarose
Regarding B2, the “RNA-dependent ATPase activity, % Ded1” value with Ded1-His6 [2] came to 97%. Moreover, the binding result in the test with GST-NAB2-HIS6 is given as “binds”.
